Where no end group is shown, it is not given here.
T1: human Y2 receptor (human, UniProt P49146 1-381)
T1 sequence (looked up): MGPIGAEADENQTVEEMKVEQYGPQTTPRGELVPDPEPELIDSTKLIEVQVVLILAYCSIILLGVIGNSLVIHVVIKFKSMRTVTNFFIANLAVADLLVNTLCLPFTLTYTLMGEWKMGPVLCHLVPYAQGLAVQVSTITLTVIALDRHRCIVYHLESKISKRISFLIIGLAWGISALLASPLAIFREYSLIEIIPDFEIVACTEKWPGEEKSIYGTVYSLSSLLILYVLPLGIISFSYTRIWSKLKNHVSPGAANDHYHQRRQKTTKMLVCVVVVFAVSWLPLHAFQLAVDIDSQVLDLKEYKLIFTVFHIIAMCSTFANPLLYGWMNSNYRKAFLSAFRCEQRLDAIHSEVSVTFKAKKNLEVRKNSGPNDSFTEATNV

T2: human Y1 receptor (human, UniProt P25929 1-384)
T2 sequence (looked up): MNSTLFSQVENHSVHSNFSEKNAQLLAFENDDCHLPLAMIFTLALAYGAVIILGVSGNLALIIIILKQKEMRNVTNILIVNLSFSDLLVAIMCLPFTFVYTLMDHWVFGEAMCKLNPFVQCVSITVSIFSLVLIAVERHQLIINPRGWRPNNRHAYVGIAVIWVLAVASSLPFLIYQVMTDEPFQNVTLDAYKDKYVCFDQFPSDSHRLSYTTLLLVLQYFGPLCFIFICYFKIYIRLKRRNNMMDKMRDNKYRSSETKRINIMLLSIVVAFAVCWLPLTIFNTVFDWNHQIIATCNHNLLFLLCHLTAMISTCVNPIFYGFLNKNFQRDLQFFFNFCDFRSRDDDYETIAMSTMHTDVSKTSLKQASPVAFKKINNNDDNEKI


What was measured:
Experiment in all cases: cell-based or functional assay
[1] = molecular target: T1, human Y2 receptor
[2] = molecular target: human Y4 receptor (human, UniProt P50391 1-375)
[3] = molecular target: T2, human Y1 receptor

Sequence of human Y4 receptor (P50391 whole entry): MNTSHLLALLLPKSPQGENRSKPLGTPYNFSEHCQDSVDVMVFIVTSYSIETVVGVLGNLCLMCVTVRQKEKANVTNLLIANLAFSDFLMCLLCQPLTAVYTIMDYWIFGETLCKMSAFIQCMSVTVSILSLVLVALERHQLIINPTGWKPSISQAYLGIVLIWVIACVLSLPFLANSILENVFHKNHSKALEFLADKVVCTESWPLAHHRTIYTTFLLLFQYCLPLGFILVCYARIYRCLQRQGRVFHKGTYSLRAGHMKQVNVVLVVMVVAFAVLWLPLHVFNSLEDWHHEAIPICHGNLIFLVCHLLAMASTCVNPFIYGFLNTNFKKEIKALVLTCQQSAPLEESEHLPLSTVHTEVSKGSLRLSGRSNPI

Row | Binder | EC50, inositol phosphate turnover in transfected COS-7 cells (hY2 potency assay) [1] [µM] | EC50, inositol phosphate turnover in transfected COS-7 cells (hY4 potency assay) [2] [µM] | EC50, inositol phosphate turnover in transfected COS-7 cells (hY1 potency assay) [3] [µM]
1 | PLEPVYPGDNATPEQMAQYAADLRRYINALTRPRY-NH2 [[Ala30]PP2-36] | > 1 | 0.00104 | > 1
2 | PLEPVYPGENATPEQLAQYAADLRRYINTLTRPRY-NH2 [[Glu10, Leu17, Thr30]PP2-36] | > 1 | 0.00107 | > 1
3 | PLEPVYPGDNATPEQMAQYAADLRRYINNLTRPRY-NH2 [[Asn30]PP2-36] | > 1 | 0.00305 | > 1
4 | PLEPVYPGENATPEQMAQYAADLRRYINMLTRPRY-NH2 [[Glu10]PP2-36] | > 1 | 0.00091 | 0.564
5 | PLEPVYPGDNATPEQMAQYAADLRRYINTLTRPRY-NH2 [[Thr30]PP2-36] | > 1 | 0.00107 | > 1
6 | PLEPVYPGDNATPEQMAQYAADLRRYINQLTRPRY-NH2 [[Gln30]PP2-36] | > 1 | 0.00099 | > 1

Reference: patent US20090118178A1 (7TM PHARMA A S, published 2009)
